Values of other authors, collected in publication PMC4266928.

Biological target: insulin (Homo sapiens) (UniProt P01308)

Kd: 10 µM
Substance: insulin (from UniProt P01308)
